Data on eleven molecules can be found in patent publication US20260308264 (published 2026).

Residue numbers refer to the chain shown, from its start.

Broadly, the Kd is the concentration at which binding is half-saturated. Higher therefore signals weaker binding.

The chains are these.
T1: IL-5Rα (human, UniProt Q01344)
T1 chain: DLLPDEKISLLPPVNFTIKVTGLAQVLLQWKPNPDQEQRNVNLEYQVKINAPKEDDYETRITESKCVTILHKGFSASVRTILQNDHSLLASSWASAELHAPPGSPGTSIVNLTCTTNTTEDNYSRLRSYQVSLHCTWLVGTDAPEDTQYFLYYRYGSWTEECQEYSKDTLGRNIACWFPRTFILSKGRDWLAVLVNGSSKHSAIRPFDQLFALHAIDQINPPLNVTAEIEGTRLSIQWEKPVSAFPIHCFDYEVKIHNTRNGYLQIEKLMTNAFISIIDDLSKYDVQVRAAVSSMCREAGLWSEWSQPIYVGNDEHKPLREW

B1: Benralizumab (antibody, V domains shown)
VH: EVQLVQSGAEVKKPGASVKVSCKASGYTFTSYVIHWVRQRPGQGLAWMGYINPYNDGTKYNERFKGKVTITSDRSTSTVYMELSSLRSEDTAVYLCGREGIRYYGLLGDYWGQGTLVTVSS
VL: DIQMTQSPSSLSASVGDRVTITCGTSEDIINYLNWYQQKPGKAPKLLIYHTSRLQSGVPSRFSGSGSGTDFTLTISSLQPEDFATYYCQQGYTLPYTFGQGTKVEIK
B2: 5R65.7 (antibody, V domains shown)
VH: QVQLVQSGAEVKKPGSSVKVSCKASGYTFTSYWINWVRQAPGQGLEWIGHIYPNKNENYYNHKFKDKATLTVDKSTNTAYMELSSLRSEDTAVYYCTREFYGRQYYQAMDYWGQGTTLTVSS
VL: DIQMTQSPSTLSASVGDRVTITCKASQNVGTAVAWYQQKPGKAPKLLIYWASTRHTGVPDRFSGSGSGTDFTLTISSLQPDDFATYYCQQFGRYPYTFGSGTKVEVK
B3: 5R65 (antibody, V domains shown)
VH: B2 VH with E99D, F100Y, Q104S, Q107Y
VL: B2 VL
B4: IL-5Rα×CD3ε BiTE(L)/scFv-Fc (IL-5Rα arm) (antibody, V domains shown)
VH: B2 VH
VL: B2 VL
B5: IL-5Rα×CD3ε IgG analog (IL-5Rα arm) (antibody, V domains shown)
VH: B2 VH
VL: B2 VL
B6: IL-5Rα×CD3ε scFv(L)/scFv-Fc (IL-5Rα arm) (antibody, V domains shown)
VH: B2 VH
VL: B2 VL
B7: IL-5Rα×CD3ε Diabody-Fc (IL-5Rα arm) (antibody, V domains shown)
VH: B2 VH
VL: B2 VL
B8: IL-5Rα×CD3ε scFv(L)/scFv-Fc (CD3ε arm) (antibody, V domains shown)
VH: EVQLVESGGGLVQPKGSLKLSCAASGFTFNTYAMNWVRQAPGKGLEWVARIRSKYNNYATYYADSVKDRFTISRDDSQSILYLQMNNLKTEDTAMYYCVRHGNFGNSYVSWFAYWGQGTLVTVSS
VL: QAVVTQESALTTSPGETVTLTCRSSTGAVTTSNYANWVQEKPDHLFTGLIGGTNKRAPGVPARFSGSLIGDKAALTITGAQTEDEAIYFCALWYSNLWVFGGGTKLTVL
B9: IL-5Rα×CD3ε Diabody-Fc (CD3ε arm) (antibody, V domains shown)
VH: B8 VH
VL: B8 VL
B10: IL-5Rα×CD3ε IgG analog (CD3ε arm) (antibody, V domains shown)
VH: B8 VH
VL: B8 VL
B11: IL-5Rα×CD3ε BiTE(L)/scFv-Fc (CD3ε arm) (antibody, V domains shown)
VH: B8 VH
VL: B8 VL

One test deals with T1, IL-5Rα.
Assay: not given
For the molecule B1, the Kd turned out to be 26.8 nM.

Turning to B2, the dissociation constant Kd came out at 4.64 nM.

Take B3: the affinity, expressed as Kd, was 14.5 nM.

The next test addresses T1, IL-5Rα. The experiment in a line: BLI.
B4 gave a Kd of 22.9 nM.

Molecule B5 registered a Kd of 30.5 nM.

Consider B6, for which the affinity, expressed as Kd, was 59.8 nM.

B7 came in with a dissociation constant (Kd) of 123 nM.

The target of another test is CD3ε (human, UniProt P07766). The experiment in a line: BLI. (In general: In BLI a coated tip is dipped into the sample, and binding shifts an interference pattern.)
CD3ε, sequence (P07766 23-207): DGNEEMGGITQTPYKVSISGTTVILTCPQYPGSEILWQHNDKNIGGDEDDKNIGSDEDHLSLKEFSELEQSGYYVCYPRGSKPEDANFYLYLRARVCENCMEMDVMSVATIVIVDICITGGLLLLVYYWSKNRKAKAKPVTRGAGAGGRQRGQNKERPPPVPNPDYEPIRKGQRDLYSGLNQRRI
Take B8: binding was put at a Kd of 3.61 nM.

The molecule B9 showed a Kd of 8.41 nM.

Turning to B10, the Kd was 1.71 nM.

Consider B11, for which the affinity, expressed as Kd, was 4.62 nM.
